Laboratory results as given in PMC10520331, “Novel exported fusion enzymes with chorismate mutase and cyclohexadienyl dehydratase activity: Shikimate pathway enzymes teamed up in no man's land” (The Journal of Biological Chemistry, 2023).
Residue numbers refer to the chain shown, from its start. Numbers in names are those of the source.

Key:
[1] = tested on: T1, O=C(O)C(=O)CC1(C(=O)O)C=CC(O)C=C1; assay: discontinuous CDT assay, phenylpyruvate enolate A320; type: biochemical, Steroidobacter cummioxidans; details: PBS pH 7.5, 30 °C, CDT site
T1 construct: fusion enzyme, CM N-terminal to CDT; without signal peptide, C-terminal His-tag; E. coli KA29; monomer
Source text: discontinuous CDT assay, phenylpyruvate enolate A320 on ∗ScCMCDT

[2] = tested on: T2, C=C(O[C@@H]1C=C(C(=O)O)C=C[C@H]1O)C(=O)O; assay: discontinuous CM assay, phenylpyruvate enolate A320; type: biochemical, Steroidobacter cummioxidans; details: PBS pH 7.5, 30 °C, CM site
T2 construct: fusion enzyme, CM N-terminal to CDT; without signal peptide, C-terminal His-tag; E. coli KA29; monomer
Source text: discontinuous CM assay, phenylpyruvate enolate A320 on ∗ScCMCDT

[3] = tested on: C=C(O[C@@H]1C=C(C(=O)O)C=C[C@H]1O)C(=O)O; assay: purified protein; details: PBS pH 7.5, 30 °C, CM site, lowest substrate 2.5 μM (Km near or below this is less reliable)
[4] = tested on: O=C(O)C(=O)CC1(C(=O)O)C=CC(O)C=C1; assay: purified protein; details: PBS pH 7.5, 30 °C, CDT site
[5] = substrate: C=C(O[C@@H]1C=C(C(=O)O)C=C[C@H]1O)C(=O)O; assay: discontinuous CM assay, phenylpyruvate enolate A320; type: biochemical, Shewanella baltica; details: PBS pH 7.5, 30 °C, CM site, lowest substrate 2.5 μM (Km near or below this is less reliable)
Source text: discontinuous CM assay, phenylpyruvate enolate A320 on ∗SbCMCDT

[6] = substrate: O=C(O)C(=O)CC1(C(=O)O)C=CC(O)C=C1; assay: discontinuous CDT assay, phenylpyruvate enolate A320; type: biochemical, Shewanella baltica; details: PBS pH 7.5, 30 °C, CDT site, lowest substrate 2.5 μM (Km near or below this is less reliable)
Source text: discontinuous CDT assay, phenylpyruvate enolate A320 on ∗SbCMCDT

[7] = substrate: C=C(O[C@@H]1C=C(C(=O)O)C=C[C@H]1O)C(=O)O; assay: discontinuous CM assay, phenylpyruvate enolate A320; type: biochemical, Janthinobacterium sp. HH01; details: PBS pH 7.5, 30 °C, lowest substrate 2.5 μM (Km near or below this is less reliable)
Source text: discontinuous CM assay, phenylpyruvate enolate […] on ∗JbCM

[8] = substrate: C=C(O[C@@H]1C=C(C(=O)O)C=C[C@H]1O)C(=O)O; assay: as above; type: biochemical, Janthinobacterium sp. HH01; details: PBS pH 7.5, 30 °C, CM site, lowest substrate 2.5 μM (Km near or below this is less reliable)
Source text: discontinuous CM assay, phenylpyruvate enolate A320 on ∗JbCDTCM

[9] = substrate: O=C(O)C(=O)CC1(C(=O)O)C=CC(O)C=C1; assay: discontinuous CDT assay, phenylpyruvate enolate A320; type: biochemical, Janthinobacterium sp. HH01; details: PBS pH 7.5, 30 °C, CDT site
Source text: discontinuous CDT assay, phenylpyruvate enolate A320 on ∗JbCDTCM

[10] = CM-site knock-out, lowest substrate 2.5 μM (Km near or below this is less reliable)

Molecule: ∗ScCMCDT (Steroidobacter cummioxidans)
- Km [1]: 16.6 ± 2.5 µM
- kcat [1]: 32.0 ± 8.4 s⁻¹
- kcat/Km [1]: 1.9e+06 ± 200000 M⁻¹ s⁻¹
- Km [2]: 6.3 ± 3.9 µM
- kcat [2]: 6.8 ± 0.7 s⁻¹

Molecule: ∗DsCDTCM (Duganella sacchari)
- Km [3]: 3.0 ± 0.8 µM
- kcat [3]: 19.5 ± 0.2 s⁻¹
- kcat/Km [3]: 6.8e+06 ± 1.9e+06 M⁻¹ s⁻¹
- Km [4]: 14.6 ± 3.1 µM
- kcat [4]: 24.9 ± 2.0 s⁻¹
- kcat/Km [4]: 1.8e+06 ± 500000 M⁻¹ s⁻¹

Molecule: ∗MpCDTCM (Massilia phosphatilytica)
- Km [3]: 3.2 ± 0.0 µM
- kcat [3]: 26.3 ± 1.4 s⁻¹
- kcat/Km [3]: 8.3e+06 ± 400000 M⁻¹ s⁻¹
- Km [4]: 18.1 ± 1.7 µM
- kcat [4]: 41.8 ± 3.5 s⁻¹
- kcat/Km [4]: 2.3e+06 M⁻¹ s⁻¹

B1: ∗SbCMCDT (Shewanella baltica OS155) (protein)
chain: DTDENAELYANMNTRLSYMQQVALYKWQHQLPIEDLAREKIVLAQSVTAAESLGITSVAITDFFQVQIELAKKIQRQYHQQWREHGLPQTLQTKQNTKLSLDKIRPALTTLGQTIIEQIAEHQDQHDFSVFNLAIDTPLVSIEDKAVLFRSLSLIKPKVYLSTLDKIIAEKILYVGTTGDYEPFSYFEAGQIKGIDIDLANRLADSLGAQAVFLPTSWSNLITDLSSERFDIMMSGISKQLFRQRVGLQSDIYLEDGKTPISLCAKKERYDSLAKIDKPDTRMIVNKGGTNQRFVDANIKQAKITVHSSNVTIFQELIANRADVMITDRVEVQLQTKKHTELCSTMPNNLNYSAKAFLMGRDPIWKEYVDAWLELSIKDGSVSNIFNHYI
notes: fusion enzyme, CM N-terminal to CDT; without signal peptide, C-terminal His-tag; E. coli KA29
- Km [5]: 3.2 ± 2.7 µM
- kcat [5]: 6.8 ± 0.1 s⁻¹
- Km [6]: 3.6 ± 1.1 µM
- kcat [6]: 12.2 ± 2.8 s⁻¹
- kcat/Km [6]: 3.5e+06 ± 300000 M⁻¹ s⁻¹

B2: ∗JbCM (Janthinobacterium sp. HH01) (protein)
chain: GLEPLRLAIDQRLLLAQAVARAKWNVQAPIEDLGREAQVIQAAVKEGAALGLPKVWIETVFRAQIEASKTVQRELFAQWSAQQAGKFDDAPDLAKTIRPELDRLTTQLLRSMASNQTVLNDEARKADVARAMRALEARALSPQAATQALAPFF
notes: split-off CM domain of JbCDTCM, starts at Gly238; C-terminal His-tag; E. coli KA29
- Km [7]: 2.2 ± 0.3 µM
- kcat [7]: 16.4 ± 1.5 s⁻¹
- kcat/Km [7]: 7.6e+06 ± 1.7e+06 M⁻¹ s⁻¹

B3: ∗JbCDTCM (Janthinobacterium sp. HH01) (protein)
chain: DHRLDDITARGVLRVGTTGDYKPFSSRAGNDFVGLDIELAADLARTLGVPVQIVPTSWPTLMKDFGDGKFDIALGGVSITPERQKQGLFSVSYLRDGKTPITRCENSARFQTLAQIDQPGVRLVVNPGGTNERFARSQAPNAQLTVYPDNVTIFDQIVTGAADLMITDAIETRLQQRLRPQLCAVHPDTPFDFAEKAILLPRDVAFKAVVDKWLQQRIASGAVQRSVDRWLDFPWGLEPLRLAIDQRLLLAQAVARAKWNVQAPIEDLGREAQVIQAAVKEGAALGLPKVWIETVFRAQIEASKTVQRELFAQWSAQQAGKFDDAPDLAKTIRPELDRLTTQLLRSMASNQTVLNDEARKADVARAMRALEARALSPQAATQALAPFF
notes: fusion enzyme, CDT N-terminal to CM; without signal peptide, C-terminal His-tag; E. coli KA29; monomer
- Km [8]: 3.0 ± 0.1 µM
- kcat [8]: 17.1 ± 0.9 s⁻¹
- kcat/Km [8]: 5.7e+06 ± 100000 M⁻¹ s⁻¹
- Km [9]: 7.3 ± 2.0 µM
- kcat [9]: 13.0 ± 1.3 s⁻¹
- kcat/Km [9]: 1.8e+06 ± 300000 M⁻¹ s⁻¹

B4: ∗JbCDTCM (Janthinobacterium sp. HH01; E200Q) (protein)
chain: B3 chain with E171Q
notes: as for B3
- Km ([8]; CDT-site knock-out): 2.4 ± 1.3 µM
- kcat ([8]; CDT-site knock-out): 15.6 ± 0.4 s⁻¹
- kcat/Km ([8]; CDT-site knock-out): 7.9e+06 ± 4.5e+06 M⁻¹ s⁻¹

B5: ∗JbCDTCM (Janthinobacterium sp. HH01; K287A) (protein)
chain: B3 chain with K258A
notes: as for B3
- Km [9, 10]: 4.2 ± 0.4 µM
- kcat [9, 10]: 13.9 ± 0.3 s⁻¹
- kcat/Km [9, 10]: 3.3e+06 ± 200000 M⁻¹ s⁻¹
